T1: mouse programmed cell death protein 1 C60S (aa 25-167) Fc fusion protein, Q02242
T1 chain: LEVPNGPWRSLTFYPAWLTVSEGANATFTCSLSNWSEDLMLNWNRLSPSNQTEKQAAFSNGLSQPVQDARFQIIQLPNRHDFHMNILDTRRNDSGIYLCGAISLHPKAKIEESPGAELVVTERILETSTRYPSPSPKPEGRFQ


Tests used:
[1] = target: T1, mouse programmed cell death protein 1 …; assay: BreviA (SPR); details: chain shown with the change;, read off a plot; for Kd: parent: est. 1.2e-7 M
[2] = target: T2, human programmed cell death protein 1 C93S (aa 24-167), Q15116; assay: BreviA (SPR); details: chain shown with the change;; parent: est. 910 pM; read off a plot
T2 sequence (Q15116 24-167 C93S): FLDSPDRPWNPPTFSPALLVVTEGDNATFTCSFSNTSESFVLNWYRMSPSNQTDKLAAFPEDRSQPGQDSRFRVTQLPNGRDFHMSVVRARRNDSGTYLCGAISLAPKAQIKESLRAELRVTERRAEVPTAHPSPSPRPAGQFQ

[3] = target: T2, human programmed cell death protein 1 …; assay: SPR; details: chain shown with the change; top curve (taken as 1024 nM hPD-1), read at end of association, about 570 s; antibody immobilized as ligand; parent: est. 740; read off a plot

Binder	Kd [1] [nM]	koff ([1]; parent: est. 5.9e-3 s-1) [s⁻¹]	Kd [2] [nM]	response [3] [RU]
toripalimab Fab (wild-type) L:L101A (protein) chain 1: QGQLVQSGAEVKKPGASVKVSCKASGYTFTDYEMHWVRQAPIHGLEWIGVIESETGGTAYNQKFKGRVTITADKSTSTAYMELSSLRSEDTAVYYCAREGITTVATTYYWYFDVWGQGTTVTVSS chain 2: DVVMTQSPLSLPVTLGQPASISCRSSQSIVHSNGNTYLEWYLQKPGQSPQLLIYKVSNRFSGVPDRFSGSGSGTDFTLKISRVEAEDVGVYYCFQGSHVPATFGQGTKLEIK	26			
toripalimab Fab (wild-type) L:V99A (protein) chain 1: QGQLVQSGAEVKKPGASVKVSCKASGYTFTDYEMHWVRQAPIHGLEWIGVIESETGGTAYNQKFKGRVTITADKSTSTAYMELSSLRSEDTAVYYCAREGITTVATTYYWYFDVWGQGTTVTVSS chain 2: DVVMTQSPLSLPVTLGQPASISCRSSQSIVHSNGNTYLEWYLQKPGQSPQLLIYKVSNRFSGVPDRFSGSGSGTDFTLKISRVEAEDVGVYYCFQGSHAPLTFGQGTKLEIK		0.00036		
toripalimab Fab (wild-type) L:V99G (protein) chain 1: QGQLVQSGAEVKKPGASVKVSCKASGYTFTDYEMHWVRQAPIHGLEWIGVIESETGGTAYNQKFKGRVTITADKSTSTAYMELSSLRSEDTAVYYCAREGITTVATTYYWYFDVWGQGTTVTVSS chain 2: DVVMTQSPLSLPVTLGQPASISCRSSQSIVHSNGNTYLEWYLQKPGQSPQLLIYKVSNRFSGVPDRFSGSGSGTDFTLKISRVEAEDVGVYYCFQGSHGPLTFGQGTKLEIK			2	770
toripalimab Fab (wild-type) L:P100H (protein) chain 1: QGQLVQSGAEVKKPGASVKVSCKASGYTFTDYEMHWVRQAPIHGLEWIGVIESETGGTAYNQKFKGRVTITADKSTSTAYMELSSLRSEDTAVYYCAREGITTVATTYYWYFDVWGQGTTVTVSS chain 2: DVVMTQSPLSLPVTLGQPASISCRSSQSIVHSNGNTYLEWYLQKPGQSPQLLIYKVSNRFSGVPDRFSGSGSGTDFTLKISRVEAEDVGVYYCFQGSHVHLTFGQGTKLEIK	1			470
